{"source": "paper PMC12422955", "molecular_target": "recombinant full-length NOE1–mScarlet-His (rat) (UniProt Q62609)", "sequence (Q62609 25-485)": "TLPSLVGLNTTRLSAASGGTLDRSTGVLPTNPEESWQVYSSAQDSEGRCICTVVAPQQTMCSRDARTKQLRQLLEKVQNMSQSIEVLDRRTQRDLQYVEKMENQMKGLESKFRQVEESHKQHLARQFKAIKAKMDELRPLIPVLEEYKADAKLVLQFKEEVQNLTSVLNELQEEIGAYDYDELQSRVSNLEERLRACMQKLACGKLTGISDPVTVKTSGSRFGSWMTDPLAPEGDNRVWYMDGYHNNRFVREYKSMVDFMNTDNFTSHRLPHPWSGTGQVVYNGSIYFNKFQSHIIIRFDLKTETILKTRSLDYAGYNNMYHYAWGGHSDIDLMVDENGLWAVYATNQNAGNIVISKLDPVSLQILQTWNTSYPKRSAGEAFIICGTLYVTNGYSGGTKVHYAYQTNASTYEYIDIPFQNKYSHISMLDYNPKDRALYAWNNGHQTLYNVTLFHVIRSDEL", "experiment": "SEC; FSEC, Superose 6 calibrated with mass markers; 5 nM full-length NOE1–mScarlet with 5–150 nM GluA4, or 1 nM with 1–100 nM CP-AMPARs; mScarlet fluorescence"}
{"substance": "native GluA1-containing CP-AMPARs purified from rat cerebellum (from UniProt P19490 19-907; P19493 21-902) (complex)", "values": [{"measurement": "stoichiometry N (receptors per NOE1 tetramer)", "result": 2}]}
